This data set deals with the molecule itself. The data set is described as follows: cross-linking.

Values joined by “and” are separate entries in the source; they are usually repeats but may differ in a detail not shown here. Identical values can stand only once.

B1: recombinant His-klp9p (natural protein, S. pombe (fission yeast), UniProt Q1MTQ7 1-633, looked up)
chain: MIQIFLRVKKAQPSSDASNKYGFLTVLNDYEILLESPEDSHAYRVSKSKTLEKASFTKVFPPSCTQLDVFSTICAPLIADSLVNMNDTLLFTLGVSGAGKTYTLFGPSDRPGVAFLALDALFYAIKGREASPQTVEFLRSQLEKCKIVEASKFLRGEAPLDIKVPNTEYYASHFPKIEEKNYQYAIYLSFAEIYNDRIFDLLEKASFFGHRHALSLKKSSTSDKKSIAGIQKVFVSNTTEAYKLIQKVLQLRKSTSTKSNSVSSRSHLIMSIELFKVCTKSNKFESCQIDLVDLAGSERTRSAETSGLLLREGASINRSLLTLGQCLEALRRKHEGKQHIIPFRQSKLTELLFHSGHLSGLAGINMLVNIDPFGSFDENAQVMRYSANAREILPPPLNENSGSQSPSHSLLQKSKNTSSTKALTSHLEQLQQENQQLRMLLADADSEMMNLEYEIRQQMTREMEERVSEVERTFLTKLLEESAQGIEYTDQKLEKMGGWMKKLQDENSEKTETIAQLEQIIEELHEELRSLEEESIKESSATQQNENQHKRSSRKLLYEDKQAIQEAHTINTKRKLWPQSTLIQAPNSDDEENVPSPSPKKKVVSPIKPLSPSRRPPLTSLYSGTTDIDINEL
As to B1, the stoichiometry N (in general, a count of units in the complex or per binding partner) was 2 and 4.
